The supplement of paper PMC9112550, “Optimization of the antimicrobial peptide Bac7 by deep mutational scanning” (BMC Biology, 2022)

system: Escherichia coli TOP10; assay: shrunken log2 fold change of peptide-encoding DNA abundance (4.5 h post-induction vs induction); higher = less antimicrobial activity (less host growth inhibition); details: time post-induction: 4.5 h; library: site-saturation at positions 5, 18, 19, 20
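Note: peptides expressed intracellularly from a pBAD plasmid library in pooled LB shake-flask culture, induced with 0.3% L-arabinose, DNA abundance read by NGS, three biological replicates, DESeq2 with apeglm shrinkage.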

Row | Sequence | shrunken log2 fold change
1 | RRIRARPPRLPRPRPRPSRMPRP | 0.362
2 | RRIRRRPPRLPRPRPRPSVTPRP | -0.041
3 | RRIRQRPPRLPRPRPRPGRDPRP | 3.85
4 | RRIRHRPPRLPRPRPRPNVSPRP | -0.0959
5 | RRIRIRPPRLPRPRPRPYTFPRP | -2.16
6 | RRIRNRPPRLPRPRPRPACQPRP | -0.0318
7 | RRIRNRPPRLPRPRPRPIWYPRP | -0.0752
8 | RRIRQRPPRLPRPRPRPFFLPRP | -0.376
9 | RRIRYRPPRLPRPRPRPTDHPRP | -0.254
10 | RRIRQRPPRLPRPRPRPPKEPRP | -0.168
11 | RRIRERPPRLPRPRPRPPFCPRP | 0.117
12 | RRIRQRPPRLPRPRPRPQRVPRP | -0.182
13 | RRIRYRPPRLPRPRPRPVNWPRP | -0.0321
14 | RRIRFRPPRLPRPRPRPLMQPRP | -0.0117
15 | RRIRSRPPRLPRPRPRPSWHPRP | -0.206
16 | RRIRQRPPRLPRPRPRPGSIPRP | -0.218
17 | RRIRQRPPRLPRPRPRPHHNPRP | -0.706
18 | RRIRQRPPRLPRPRPRPIFVPRP | -0.217
19 | RRIRQRPPRLPRPRPRPCTEPRP | 0.0363
20 | RRIRFRPPRLPRPRPRPQFTPRP | -0.362
21 | RRIRYRPPRLPRPRPRPLPRPRP | 0.00472
22 | RRIRSRPPRLPRPRPRPKDWPRP | 0.21
23 | RRIRQRPPRLPRPRPRPYSRPRP | -0.0567
24 | RRIRWRPPRLPRPRPRPGYWPRP | -0.00394
25 | RRIRIRPPRLPRPRPRPRQYPRP | -0.258

Row | Sequence | shrunken log2 fold change
26 | RRIRLRPPRLPRPRPRPMMSPRP | -0.00436
27 | RRIRERPPRLPRPRPRPEWLPRP | -0.062
28 | RRIRRRPPRLPRPRPRPHYMPRP | -0.126
29 | RRIRERPPRLPRPRPRPAQWPRP | 0.184
30 | RRIRVRPPRLPRPRPRPWLSPRP | -0.0434
31 | RRIRARPPRLPRPRPRPESNPRP | 0.553
32 | RRIRHRPPRLPRPRPRPSKFPRP | -0.64
33 | RRIRIRPPRLPRPRPRPNTPPRP | -0.487
34 | RRIRPRPPRLPRPRPRPDWMPRP | -0.212
35 | RRIRNRPPRLPRPRPRPDLGPRP | 0.0328
36 | RRIRFRPPRLPRPRPRPTNEPRP | -0.264
37 | RRIRPRPPRLPRPRPRPIPKPRP | 0.28
38 | RRIRKRPPRLPRPRPRPERGPRP | 0.443
39 | RRIRERPPRLPRPRPRPQEYPRP | -0.01
40 | RRIRIRPPRLPRPRPRPMEWPRP | -0.00133
41 | RRIRCRPPRLPRPRPRPDLKPRP | -0.257
42 | RRIRWRPPRLPRPRPRPSRHPRP | 0.0203
43 | RRIRNRPPRLPRPRPRPLSNPRP | -0.386
44 | RRIRHRPPRLPRPRPRPRAGPRP | 0.638
45 | RRIRHRPPRLPRPRPRPKNQPRP | -0.16
46 | RRIRMRPPRLPRPRPRPNVVPRP | -0.0912
47 | RRIRVRPPRLPRPRPRPVNNPRP | -0.39
48 | RRIRQRPPRLPRPRPRPITSPRP | -0.0775
49 | RRIRARPPRLPRPRPRPIWYPRP | -0.147
50 | RRIRTRPPRLPRPRPRPEDWPRP | 0.386

Row | Sequence | shrunken log2 fold change
51 | RRIRKRPPRLPRPRPRPSVNPRP | -0.0205
52 | RRIRLRPPRLPRPRPRPCKRPRP | -0.0962
53 | RRIRTRPPRLPRPRPRPFKPPRP | -0.0194
54 | RRIRERPPRLPRPRPRPDEMPRP | -0.0223
55 | RRIRYRPPRLPRPRPRPVAAPRP | 0.149
56 | RRIRTRPPRLPRPRPRPVIWPRP | 0.128
57 | RRIRWRPPRLPRPRPRPCYCPRP | -0.247
58 | RRIRYRPPRLPRPRPRPFPGPRP | -0.253
59 | RRIRERPPRLPRPRPRPPVYPRP | 0.00394
60 | RRIRSRPPRLPRPRPRPIQAPRP | -0.0793
61 | RRIRIRPPRLPRPRPRPYEIPRP | -0.811
62 | RRIRNRPPRLPRPRPRPIFFPRP | 0.0887
63 | RRIRHRPPRLPRPRPRPNANPRP | -0.801
64 | RRIRTRPPRLPRPRPRPVTGPRP | -0.083
65 | RRIRNRPPRLPRPRPRPHQTPRP | -0.0525
66 | RRIRLRPPRLPRPRPRPLHEPRP | -0.00702
67 | RRIRNRPPRLPRPRPRPSYCPRP | -0.267
68 | RRIRSRPPRLPRPRPRPYTMPRP | -0.19
69 | RRIRLRPPRLPRPRPRPSYVPRP | -0.13
70 | RRIRNRPPRLPRPRPRPMQHPRP | -0.0549
71 | RRIRMRPPRLPRPRPRPFQLPRP | 0.118
72 | RRIRWRPPRLPRPRPRPAKLPRP | 0.0566
73 | RRIRNRPPRLPRPRPRPDHCPRP | 0.0463
74 | RRIRNRPPRLPRPRPRPDTRPRP | -0.111
75 | RRIRPRPPRLPRPRPRPFWTPRP | -0.0762

Row | Sequence | shrunken log2 fold change
76 | RRIRPRPPRLPRPRPRPRADPRP | 0.335
77 | RRIRIRPPRLPRPRPRPHLYPRP | -0.241
78 | RRIRERPPRLPRPRPRPDDMPRP | -0.0903
79 | RRIRPRPPRLPRPRPRPRYWPRP | 0.0515
80 | RRIRCRPPRLPRPRPRPITPPRP | -0.219
81 | RRIRNRPPRLPRPRPRPAYMPRP | -0.119
82 | RRIRWRPPRLPRPRPRPGPIPRP | 0.171
83 | RRIRARPPRLPRPRPRPSFTPRP | 0.582
84 | RRIRSRPPRLPRPRPRPQFHPRP | -0.206
85 | RRIRRRPPRLPRPRPRPQMHPRP | 0.354
86 | RRIRDRPPRLPRPRPRPWQNPRP | -0.0811
87 | RRIRFRPPRLPRPRPRPLCWPRP | 0.135
88 | RRIRNRPPRLPRPRPRPLDMPRP | -0.0766
89 | RRIRARPPRLPRPRPRPRQPPRP | 0.75
90 | RRIRFRPPRLPRPRPRPPWLPRP | 0.509
91 | RRIRWRPPRLPRPRPRPGSRPRP | 0.244
92 | RRIRERPPRLPRPRPRPYWYPRP | -1.83
93 | RRIRYRPPRLPRPRPRPPYCPRP | -0.287
94 | RRIRDRPPRLPRPRPRPLSGPRP | -0.0838
95 | RRIRQRPPRLPRPRPRPTSHPRP | 0.0206
96 | RRIRSRPPRLPRPRPRPNVCPRP | -0.0635
97 | RRIRERPPRLPRPRPRPAGMPRP | -0.0133
98 | RRIRVRPPRLPRPRPRPEKEPRP | 0.0209
99 | RRIRKRPPRLPRPRPRPRDFPRP | 0.188
100 | RRIRGRPPRLPRPRPRPIPVPRP | 0.0104

Row | Sequence | shrunken log2 fold change
101 | RRIRIRPPRLPRPRPRPKRCPRP | -0.00138
102 | RRIRSRPPRLPRPRPRPKDEPRP | 0.382
103 | RRIRNRPPRLPRPRPRPMRFPRP | -0.00968
104 | RRIRCRPPRLPRPRPRPDCQPRP | -0.0895
105 | RRIRRRPPRLPRPRPRPFMKPRP | -0.213
106 | RRIRGRPPRLPRPRPRPANWPRP | 0.731
107 | RRIRLRPPRLPRPRPRPQPSPRP | 0.169
108 | RRIRYRPPRLPRPRPRPWNHPRP | -0.00776
109 | RRIRHRPPRLPRPRPRPNHCPRP | -0.0509
110 | RRIRGRPPRLPRPRPRPARLPRP | 0.678
111 | RRIRRRPPRLPRPRPRPEWKPRP | 0.0796
112 | RRIRWRPPRLPRPRPRPNSHPRP | -0.16
113 | RRIRTRPPRLPRPRPRPQSEPRP | -0.141
114 | RRIRCRPPRLPRPRPRPGCWPRP | 0.569
115 | RRIRYRPPRLPRPRPRPQCYPRP | -0.0301
116 | RRIRNRPPRLPRPRPRPPLDPRP | 0.0724
117 | RRIRYRPPRLPRPRPRPVHYPRP | -0.0657
118 | RRIRMRPPRLPRPRPRPGVAPRP | 1.02
119 | RRIRNRPPRLPRPRPRPYPQPRP | -0.138
120 | RRIRNRPPRLPRPRPRPAWNPRP | -0.0495
121 | RRIRMRPPRLPRPRPRPLLTPRP | 2.33
122 | RRIRYRPPRLPRPRPRPEYRPRP | -0.00979
123 | RRIRARPPRLPRPRPRPRETPRP | 0.52
124 | RRIRVRPPRLPRPRPRPLDEPRP | -0.0276
125 | RRIRLRPPRLPRPRPRPSNEPRP | -0.299

Row | Sequence | shrunken log2 fold change
126 | RRIRIRPPRLPRPRPRPFDAPRP | -0.0176
127 | RRIRVRPPRLPRPRPRPGMHPRP | -0.00805
128 | RRIRVRPPRLPRPRPRPPRHPRP | 0.252
129 | RRIRCRPPRLPRPRPRPHIKPRP | -0.788
130 | RRIRDRPPRLPRPRPRPQSEPRP | 0.0514
131 | RRIRCRPPRLPRPRPRPGAMPRP | 0.319
132 | RRIRARPPRLPRPRPRPTPSPRP | 0.791
133 | RRIRIRPPRLPRPRPRPLKIPRP | 1.44
134 | RRIRLRPPRLPRPRPRPSKHPRP | -0.642
135 | RRIRCRPPRLPRPRPRPPNIPRP | -0.573
136 | RRIRIRPPRLPRPRPRPYPDPRP | -0.039
137 | RRIRTRPPRLPRPRPRPNTHPRP | -0.451
138 | RRIRDRPPRLPRPRPRPYWPPRP | -0.547
139 | RRIRPRPPRLPRPRPRPFNDPRP | 0.0502
140 | RRIRHRPPRLPRPRPRPMEDPRP | 0.0325
141 | RRIRERPPRLPRPRPRPAWIPRP | 0.121
142 | RRIRHRPPRLPRPRPRPTITPRP | -0.384
143 | RRIRERPPRLPRPRPRPFTFPRP | -0.275
144 | RRIRCRPPRLPRPRPRPKTTPRP | -0.000868
145 | RRIRIRPPRLPRPRPRPHCGPRP | -0.0759
146 | RRIRGRPPRLPRPRPRPLFRPRP | 0.444
147 | RRIRMRPPRLPRPRPRPPVCPRP | 0.439
148 | RRIRYRPPRLPRPRPRPDGKPRP | -0.01
149 | RRIRKRPPRLPRPRPRPLRPPRP | 1.01
150 | RRIRKRPPRLPRPRPRPWFRPRP | 0.00108
